Source: the supplement of paper PMC12764529
± gives the half width of the 95% confidence interval.

Test: folding stability dG unfold from chymotrypsin proteolysis; higher = more stable
Outline: (§1)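 Unfolding free energy was derived, per protease or combined, against a sequence-predicted unfolded-state K50 and a shared folded-state K50, starting from K50 inferred by Bayesian fitting of sequencing counts. Digestion with trypsin and chymotrypsin was carried out on designed mini-proteins under 80 residues without cysteine in a PA-tagged cDNA display construct. Only designs with AlphaFold2 dimer inter-PAE above 15 were kept.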

Sequence	folding stability dG unfold [kcal/mol]
SAGGAFAVVDAGDKVITITVYNPDGELVAPAEIPVLDPETGESDALNIPLEELEKLAGVPIELEPAGSAGGS [r16_778_TrMRF]	1 ± 0.025
SAGGSAGGSAGMSSVAPITTPDGKVAESVTVTEETLPNGEVVTKITTTLPDGTVVTTTLESAGGSAGGSAGG [r11_810_JUSTAS]	0.997 ± 0.051
SAGGSASSSEKIRITYLKDGVEYEVTFPLVELVTDPNTGVTTVTLPPEFKELFPGPITVTEVEIPPSAGGSA [r15_710_JUSTAS]	2.267 ± 0.019
SAGRVRLEIVIMIPIDPEQLENLPPSIRDPNGMEIYENGDMIMIKMPIPIPPPPVPDPDGKKMTPEELSAGG [r19_148_TrROS]	0.493 ± 0.11
SAGGGMSEEYVKKLFESLGFTKLETREYPGLKVTTFSAKDLTVVAYPDGTIEIFDKNGNLIKTDKGLSAGGS [r8_147_JUSTAS]	1.82 ± 0.03
SSVEIKLYYDPVTNKYYVEITITAPPGDPAAVEARAAAVREEVKEALKAKGLVPDEIKVTVNVVSPAVPGSA [r9_117_JUSTAS]	4.27 ± 0.21
SSPKIVVEVTLDGNPRTITIPSSLSLEEIKEKILEALKEEGIEDVPIEEIKIKKEEELPTEEGESKIVVSSA [r9_1053_JUSTAS]	2.08 ± 0.087
SAGGEIEIDENGFIRMTLYDPATGYKIEAEFRILPDGTIEITKIKIEPLPPPPPPKVFVLDENGELVESAGG [r13_646_TrROS_Hall]	3.1 ± 0.086
SAGGMKIVSVEVVKDEETGVYVIKLTVEDPETNETYTLEVVIKNEDGELKTITVKAKSKEDALKELLKSAGG [r13_26_TrROS_Hall]	3.6 ± 0.14
SAGGQKTETFEFAFRKPDGSLYLVKITLIEKLPNEPNVYIAKVEVYKLNLVTGKPEKVGEFEVLLNLSAGGS [r8_65_TrMRF]	5.04 ± 0.15
SAGGMKKPIKAKIKIVKFEDGYLILIELPDGKIIAFKSPEELKAALEKFPEIEITEIEIIPPEEFLKKSAGG [r13_730_TrMRF]	3.47 ± 0.19
SAMEALEEAGFEVVEVEEVEERELPDGKRLVRLRITVRRDGKLVELEIVVPEENEEEALRAALELLREESAG [r14_726_TrROS_Hall]	4.4 ± 0.099
SAGGSAGGSAGGKKTIEIMIFYDPGDPERAKEKARDIANTLQARFPNVTVKITVFRFPNSAGGSAGGSAGGS [r10_223_TrROS]	2.5 ± 0.048
SAGGSAGGSAGGPEWRWREFTIPGDPEEIKKLFPNFKILSPEPPPNGMRKVTIWIPPEDSAGGSAGGSAGGS [r10_764_TrROS]	1.54 ± 0.079
SAGMTLTIEVLIKVETPEEARKAAEELARRLAEEGYTVTVEVVKVEEVTLPDGSKYYRVTVKVTVEPAPSAG [r5_158_TrROS_Hall]	5.62 ± 0.15
SAGGSAGGSAGGVEELKKALEKAGFKVVKVEVTEVKNPETKETTTKITVTLEDGSKLTITSAGGSAGGSAGG [r7_337_TrROS_Hall]	3.63 ± 0.058
SAGGSAGGSAGGSMYTAEPSVVLLPDGTLRTVTRYTFPDGSVTSETATSPLSPDDPALLSAGGSAGGSAGGS [r4_144_JUSTAS]	0.949 ± 0.099

Test: folding stability dG unfold from trypsin proteolysis; higher = more stable
Outline: as §1

Sequence	folding stability dG unfold [kcal/mol]
SAGGAFAVVDAGDKVITITVYNPDGELVAPAEIPVLDPETGESDALNIPLEELEKLAGVPIELEPAGSAGGS [r16_778_TrMRF]	0.977 ± 0.059
SAGGSAGGSAGMSSVAPITTPDGKVAESVTVTEETLPNGEVVTKITTTLPDGTVVTTTLESAGGSAGGSAGG [r11_810_JUSTAS]	1.59 ± 0.066
SAGGSASSSEKIRITYLKDGVEYEVTFPLVELVTDPNTGVTTVTLPPEFKELFPGPITVTEVEIPPSAGGSA [r15_710_JUSTAS]	1.42 ± 0.035
SAGRVRLEIVIMIPIDPEQLENLPPSIRDPNGMEIYENGDMIMIKMPIPIPPPPVPDPDGKKMTPEELSAGG [r19_148_TrROS]	1.44 ± 0.052
SAGGGMSEEYVKKLFESLGFTKLETREYPGLKVTTFSAKDLTVVAYPDGTIEIFDKNGNLIKTDKGLSAGGS [r8_147_JUSTAS]	1.06 ± 0.021
SSVEIKLYYDPVTNKYYVEITITAPPGDPAAVEARAAAVREEVKEALKAKGLVPDEIKVTVNVVSPAVPGSA [r9_117_JUSTAS]	4.09 ± 0.15
SSPKIVVEVTLDGNPRTITIPSSLSLEEIKEKILEALKEEGIEDVPIEEIKIKKEEELPTEEGESKIVVSSA [r9_1053_JUSTAS]	0.999 ± 0.066
SAGGEIEIDENGFIRMTLYDPATGYKIEAEFRILPDGTIEITKIKIEPLPPPPPPKVFVLDENGELVESAGG [r13_646_TrROS_Hall]	3.31 ± 0.2
SAGGMKIVSVEVVKDEETGVYVIKLTVEDPETNETYTLEVVIKNEDGELKTITVKAKSKEDALKELLKSAGG [r13_26_TrROS_Hall]	1.85 ± 0.067
SAGGQKTETFEFAFRKPDGSLYLVKITLIEKLPNEPNVYIAKVEVYKLNLVTGKPEKVGEFEVLLNLSAGGS [r8_65_TrMRF]	3.4 ± 0.13
SAGGMKKPIKAKIKIVKFEDGYLILIELPDGKIIAFKSPEELKAALEKFPEIEITEIEIIPPEEFLKKSAGG [r13_730_TrMRF]	1.63 ± 0.067
SAMEALEEAGFEVVEVEEVEERELPDGKRLVRLRITVRRDGKLVELEIVVPEENEEEALRAALELLREESAG [r14_726_TrROS_Hall]	4.49 ± 0.18
SAGGSAGGSAGGKKTIEIMIFYDPGDPERAKEKARDIANTLQARFPNVTVKITVFRFPNSAGGSAGGSAGGS [r10_223_TrROS]	1.87 ± 0.074
SAGGSAGGSAGGPEWRWREFTIPGDPEEIKKLFPNFKILSPEPPPNGMRKVTIWIPPEDSAGGSAGGSAGGS [r10_764_TrROS]	-0.0853 ± 0.6
SAGMTLTIEVLIKVETPEEARKAAEELARRLAEEGYTVTVEVVKVEEVTLPDGSKYYRVTVKVTVEPAPSAG [r5_158_TrROS_Hall]	5.08 ± 0.38
SAGGSAGGSAGGVEELKKALEKAGFKVVKVEVTEVKNPETKETTTKITVTLEDGSKLTITSAGGSAGGSAGG [r7_337_TrROS_Hall]	3.95 ± 0.2
SAGGSAGGSAGGSMYTAEPSVVLLPDGTLRTVTRYTFPDGSVTSETATSPLSPDDPALLSAGGSAGGSAGGS [r4_144_JUSTAS]	-0.0533 ± 0.1

Test: folding stability dG unfold (combined trypsin and chymotrypsin); higher = more stable
Outline: as §1

Sequence	folding stability dG unfold [kcal/mol]
SAGGAFAVVDAGDKVITITVYNPDGELVAPAEIPVLDPETGESDALNIPLEELEKLAGVPIELEPAGSAGGS [r16_778_TrMRF]	1.03 ± 0.1
SAGGSAGGSAGMSSVAPITTPDGKVAESVTVTEETLPNGEVVTKITTTLPDGTVVTTTLESAGGSAGGSAGG [r11_810_JUSTAS]	1.3 ± 0.1
SAGGSASSSEKIRITYLKDGVEYEVTFPLVELVTDPNTGVTTVTLPPEFKELFPGPITVTEVEIPPSAGGSA [r15_710_JUSTAS]	1.99 ± 0.032
SAGRVRLEIVIMIPIDPEQLENLPPSIRDPNGMEIYENGDMIMIKMPIPIPPPPVPDPDGKKMTPEELSAGG [r19_148_TrROS]	0.982 ± 0.24
SAGGGMSEEYVKKLFESLGFTKLETREYPGLKVTTFSAKDLTVVAYPDGTIEIFDKNGNLIKTDKGLSAGGS [r8_147_JUSTAS]	1.54 ± 0.049
SSVEIKLYYDPVTNKYYVEITITAPPGDPAAVEARAAAVREEVKEALKAKGLVPDEIKVTVNVVSPAVPGSA [r9_117_JUSTAS]	4.37 ± 0.21
SSPKIVVEVTLDGNPRTITIPSSLSLEEIKEKILEALKEEGIEDVPIEEIKIKKEEELPTEEGESKIVVSSA [r9_1053_JUSTAS]	1.76 ± 0.15
SAGGEIEIDENGFIRMTLYDPATGYKIEAEFRILPDGTIEITKIKIEPLPPPPPPKVFVLDENGELVESAGG [r13_646_TrROS_Hall]	2.77 ± 0.38
SAGGMKIVSVEVVKDEETGVYVIKLTVEDPETNETYTLEVVIKNEDGELKTITVKAKSKEDALKELLKSAGG [r13_26_TrROS_Hall]	3.1 ± 0.23
SAGGQKTETFEFAFRKPDGSLYLVKITLIEKLPNEPNVYIAKVEVYKLNLVTGKPEKVGEFEVLLNLSAGGS [r8_65_TrMRF]	4.96 ± 0.14
SAGGMKKPIKAKIKIVKFEDGYLILIELPDGKIIAFKSPEELKAALEKFPEIEITEIEIIPPEEFLKKSAGG [r13_730_TrMRF]	3.07 ± 0.22
SAMEALEEAGFEVVEVEEVEERELPDGKRLVRLRITVRRDGKLVELEIVVPEENEEEALRAALELLREESAG [r14_726_TrROS_Hall]	4.44 ± 0.11
SAGGSAGGSAGGKKTIEIMIFYDPGDPERAKEKARDIANTLQARFPNVTVKITVFRFPNSAGGSAGGSAGGS [r10_223_TrROS]	2.25 ± 0.14
SAGGSAGGSAGGPEWRWREFTIPGDPEEIKKLFPNFKILSPEPPPNGMRKVTIWIPPEDSAGGSAGGSAGGS [r10_764_TrROS]	1.27 ± 0.12
SAGMTLTIEVLIKVETPEEARKAAEELARRLAEEGYTVTVEVVKVEEVTLPDGSKYYRVTVKVTVEPAPSAG [r5_158_TrROS_Hall]	5.78 ± 0.31
SAGGSAGGSAGGVEELKKALEKAGFKVVKVEVTEVKNPETKETTTKITVTLEDGSKLTITSAGGSAGGSAGG [r7_337_TrROS_Hall]	3.72 ± 0.11
SAGGSAGGSAGGSMYTAEPSVVLLPDGTLRTVTRYTFPDGSVTSETATSPLSPDDPALLSAGGSAGGSAGGS [r4_144_JUSTAS]	0.637 ± 0.087
